From patent publication US11739132B2, “Separation moieties and methods of use thereof” (Werewolf Therapeutics, Inc., priority 2019, dated 2023)
Entries after “also recorded” stand apart in the source; their conditions may differ. No end group written: not given here.

Key:
Cathepsin K (CTSK) = target: T1, Cathepsin K (CTSK) (Homo sapiens, UniProt P43235); assay: Counter-screening of CTSL1 FRET substrates with Cathepsin K; type: biochemical; details: specific activity
T1 sequence (P43235 115-329): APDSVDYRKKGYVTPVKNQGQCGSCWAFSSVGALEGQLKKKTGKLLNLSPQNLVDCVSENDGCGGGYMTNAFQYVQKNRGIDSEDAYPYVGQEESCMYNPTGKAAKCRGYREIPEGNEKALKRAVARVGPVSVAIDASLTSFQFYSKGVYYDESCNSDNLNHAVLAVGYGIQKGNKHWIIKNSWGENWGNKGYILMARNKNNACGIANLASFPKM
Experimental: Counter-screening of CTSL1_1 and CTSL1_2 was performed with the enzyme Cathepsin K (CTSK). […] For comparison, the specific activity for reference substrates such as Z-LR-AMC and Z-FR-AMC is 15,000-25,000 pmol/min/μg, with the average value indicated by a dashed line in FIG. 47.

CTSL1 [1] = target: T2, CTSL1 (Homo sapiens, UniProt P07711); assay: In vitro FRET kinetics with CTSL1; type: biochemical
T2 sequence (P07711 114-333): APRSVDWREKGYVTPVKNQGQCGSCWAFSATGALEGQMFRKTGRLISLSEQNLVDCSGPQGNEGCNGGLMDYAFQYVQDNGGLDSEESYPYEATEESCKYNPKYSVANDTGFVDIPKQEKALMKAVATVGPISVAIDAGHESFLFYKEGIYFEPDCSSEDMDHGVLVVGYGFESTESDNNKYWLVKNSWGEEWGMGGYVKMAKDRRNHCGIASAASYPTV
Experimental: (§1) Enzymes were activated and assayed following the manufacturer's recommendations.
(§2) For CTSL1, enzyme was activated by pre-incubation in assay buffer (50 mM MES, 5 mM DTT, 1 mM EDTA, pH=6) for 15 min. MSP-MS reactions were then started with the mixing of enzyme and substrate, at final CTSL1 concentration of 0.04 ng/μl (0.77 nM), and peptide substrate concentration at 500 nM.
Additional in vitro kinetic experiments were performed to characterize a new candidate motif for CTSL1 enzyme; the CTSL1_2 motif has the sequence […] (SEQ ID NO: 199). […] Yet, initial experiments with the CTSL1_2 FRET substrate were inconclusive, possibly due to artifacts in the FRET assay; therefore, a new FRET peptide construct was designed with the 9-mer sequence […] (SEQ ID NO: 236).
All of the FRET substrates used in these studies have a methoxycoumarin (Mca) fluorophore and dinitrophenyl-lysyl (Dnp) quencher pair at the N- and C-termini of the sequences, respectively.

CTSL1 [2] = target: T2, CTSL1; assay: 30-mer tandem linker library MSP-MS, CTSL1; type: biochemical
Experimental: (§3) Protease specificity screening was performed using Multiplexed Substrate Profiling by Mass Spectrometry (MSP-MS), the method described in, e.g. O'Donoghue A. J. et al., Nat Methods., 2012; 9(11): 1095-1100. This method employs a physico-chemically diverse peptide library as substrates for proteases, and reactions are monitored over time with mass spectrometric detection of cleaved products. The resulting cleavages are assessed for specific cleavage in the enzyme-treated sample by comparison with results from a no-enzyme control incubation.
as §1, §2
This hypothesis was tested in the context of the hybrid linker design experiment. Shown in FIG. 46 are the results of cleavage of two matched 30-mer peptides with the following sequences:
(§4) To analyze the catalytic efficiency of candidate tandem linker designs, a tailored library approach using MSP-MS was applied. For the tailored library, a set of nineteen synthetic peptides, 30 amino acids in length (30-mers), were designed to test whether sequence context affects the efficiency of cleavage. Peptides were assayed in a multiplex format together as a substrate library with individual recombinant enzymes, using MSP-MS. For quantitative comparisons, kinetic analysis was performed over a time course, and results are reported either as a catalytic efficiency kcat/KM for well-behaved first-order kinetics, or as observed rates as kobs for more complex kinetic behavior.
(§5) Catalytic efficiency (kcat/KM) estimations were used to rank the top cleaved substrates in the MSP-MS reaction. Peptides were quantified by mass spectrometric label-free quantitation from the MS1 precursor ion peak areas for each peptide. Enzyme progress curves were modeled from six-time point measurements in GraphPad Prism. Data were fitted using non-linear least squares fitting to the first order kinetics equation:
(§6) [formula] where Y=percent product formation or substrate consumption, and t=time. The observed rate is a function of the enzyme concentration [E0], and an observed catalytic efficiency (kcat/KM) in units M^−1s^−1

Hepsin = target: T3, Hepsin (Homo sapiens, UniProt P05981); assay: 30-mer library counter-screening MSP-MS, Hepsin; type: biochemical
T3 construct: purchased R&D Systems (Bio-techne) 4776-SE
T3 sequence (P05981 163-417 limits assumed): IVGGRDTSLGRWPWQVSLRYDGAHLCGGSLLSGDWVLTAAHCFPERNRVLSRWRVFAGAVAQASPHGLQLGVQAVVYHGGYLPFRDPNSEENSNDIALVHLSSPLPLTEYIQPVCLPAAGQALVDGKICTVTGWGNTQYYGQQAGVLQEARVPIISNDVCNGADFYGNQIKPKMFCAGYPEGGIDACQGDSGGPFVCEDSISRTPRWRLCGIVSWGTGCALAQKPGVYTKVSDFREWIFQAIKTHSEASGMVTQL
T3 sequence (P05981 1-162 partner limits assumed): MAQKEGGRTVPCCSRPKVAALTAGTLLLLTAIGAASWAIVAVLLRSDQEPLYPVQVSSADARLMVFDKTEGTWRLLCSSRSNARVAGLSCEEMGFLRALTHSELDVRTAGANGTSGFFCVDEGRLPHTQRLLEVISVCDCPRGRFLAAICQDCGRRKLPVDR
Experimental: as §3, §1
Hepsin was pre-activated overnight at 37° C. in the manufacturer recommended buffer: 100 mM TRIS, 10 mM CaCl2, 150 mM NaCl, 0.05% Brij-35, pH 8.0. Activity was measured with 2.4 or 24 nM enzyme in the buffer: 50 mM TRIS HCl at pH 7.4.
(§7) Counter-screening was performed against the enzymes Thrombin, Factor Xa and Hepsin using this library as well, and for calibration of activity, a positive-control peptide bearing favorable motifs for these enzymes was also designed (ALU30-19).
as §5, §6
(§8) Counter-screening with Thrombin, Factor Xa and Hepsin was also performed following the same analysis. The library peptide Alu30-19 was designed to include authentic sites for each enzyme, for comparison of overall cleavage efficiency as well as cleavage site specificity within each motif. The substrate designed for Factor Xa has the motif FNPR|TFGS (SEQ ID NO: 248), derived from the Factor Xa cleavage site in Thrombin. The substrate motif for Thrombin was FPR|, a common tool substrate motif. The substrate motif for hepsin was RKRR|GSRG (SEQ ID NO: 249) from filaggrin.

[3] = cited from earlier work
[4] = tested on: activated T cells relative to NK cells; details: cited from earlier work
Factor Xa = target: T4, Factor Xa (Homo sapiens, UniProt P00742); assay: 30-mer library counter-screening MSP-MS, Factor Xa; type: biochemical
T4 construct: purchased R&D Systems (Bio-techne) 1063-SE-010
T4 sequence (P00742 235-488 limits assumed): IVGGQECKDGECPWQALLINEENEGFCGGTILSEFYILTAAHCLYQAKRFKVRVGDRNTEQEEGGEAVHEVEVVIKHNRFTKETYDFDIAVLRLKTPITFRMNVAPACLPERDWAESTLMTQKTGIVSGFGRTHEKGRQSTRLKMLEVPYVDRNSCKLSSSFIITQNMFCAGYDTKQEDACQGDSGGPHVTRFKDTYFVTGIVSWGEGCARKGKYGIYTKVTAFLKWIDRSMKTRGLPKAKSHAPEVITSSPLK
T4 sequence (P00742 41-179 partner limits assumed): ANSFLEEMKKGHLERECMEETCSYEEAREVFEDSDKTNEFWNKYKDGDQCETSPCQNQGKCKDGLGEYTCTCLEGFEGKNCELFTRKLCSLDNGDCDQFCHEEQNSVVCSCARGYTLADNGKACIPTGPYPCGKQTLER
Experimental: as §3, §1
Factor Xa was assayed at 4.7 nM enzyme, at 37° C. in the manufacturer recommended buffer: 50 mM TRIS, 10 mM CaCl2, 150 mM NaCl, pH 7.5.
as §7
Catalytic efficiency (kcat/KM) estimations were used to rank the top cleaved substrates in the MSP-MS reaction. Peptides were quantified by mass spectrometric label-free quantitation from the MS1 precursor ion peak areas for each peptide. Enzyme progress curves were modeled from six-time point measurements in GraphPad Prism. […]

FAPα = target: T5, FAPα (Homo sapiens, UniProt Q12884); assay: 30-mer tandem linker library MSP-MS, FAPα; type: biochemical
T5 construct: purchased R&D Systems (Bio-techne) 930-ADB-010
T5 sequence (Q12884 1-760): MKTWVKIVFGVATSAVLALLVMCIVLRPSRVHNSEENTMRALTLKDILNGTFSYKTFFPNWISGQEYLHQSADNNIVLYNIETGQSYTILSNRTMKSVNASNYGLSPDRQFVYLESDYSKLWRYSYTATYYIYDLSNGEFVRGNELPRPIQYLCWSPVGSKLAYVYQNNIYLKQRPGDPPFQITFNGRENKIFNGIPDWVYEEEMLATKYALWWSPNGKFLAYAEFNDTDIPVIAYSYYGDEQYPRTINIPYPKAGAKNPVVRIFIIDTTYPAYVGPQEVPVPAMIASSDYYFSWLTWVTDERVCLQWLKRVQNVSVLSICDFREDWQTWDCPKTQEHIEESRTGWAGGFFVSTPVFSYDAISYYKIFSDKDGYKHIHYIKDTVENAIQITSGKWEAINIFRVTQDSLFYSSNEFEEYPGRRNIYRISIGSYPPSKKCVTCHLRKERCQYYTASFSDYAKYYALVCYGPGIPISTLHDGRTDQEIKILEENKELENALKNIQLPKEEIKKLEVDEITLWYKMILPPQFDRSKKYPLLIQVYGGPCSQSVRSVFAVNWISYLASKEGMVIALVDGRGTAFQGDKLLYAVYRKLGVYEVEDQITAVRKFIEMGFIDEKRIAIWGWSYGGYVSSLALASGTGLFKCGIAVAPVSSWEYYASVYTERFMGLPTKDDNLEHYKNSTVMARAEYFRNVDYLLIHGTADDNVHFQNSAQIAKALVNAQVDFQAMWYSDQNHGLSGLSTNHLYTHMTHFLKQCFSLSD
Experimental: as §3, §1
FAPα activity was tested with fluorescence detection using a generic Z-GP-AMC substrate. For FRET assays, the final enzyme concentration was 5 nM and the buffer was 50 mM TRIS HCl, 1 M NaCl, 1 mg/mL BSA, pH 7.5.
as §4, §5, §6

Thrombin = target: T6, Thrombin (Homo sapiens, UniProt P00734); assay: 30-mer library counter-screening MSP-MS, Thrombin; type: biochemical
T6 construct: purchased R&D Systems (Bio-techne) 2196-SE-200
Experimental: as §3, §1
Thrombin was activated following the manufacturer's recommended conditions by pre-incubation with the enzyme with thermolysin for 15 min, and then the thermolysin was quenched with 1,10 phenanthroline treatment. Activated thrombin was assayed at 1.2 nM in activation buffer: 50 mM TRIS HCl, 10 mM CaCl2, 150 mM NaCl, 0.05% (w/v) Brij-35, pH 7.5.
as §7, §5, §6, §8

MMP9 = target: T7, MMP9 (Homo sapiens, UniProt P14780); assay: 30-mer tandem linker library MSP-MS, MMP9; type: biochemical
T7 construct: purchased R&D Systems (Bio-techne) 911-MP-010
T7 sequence (P14780 107-707 limits assumed): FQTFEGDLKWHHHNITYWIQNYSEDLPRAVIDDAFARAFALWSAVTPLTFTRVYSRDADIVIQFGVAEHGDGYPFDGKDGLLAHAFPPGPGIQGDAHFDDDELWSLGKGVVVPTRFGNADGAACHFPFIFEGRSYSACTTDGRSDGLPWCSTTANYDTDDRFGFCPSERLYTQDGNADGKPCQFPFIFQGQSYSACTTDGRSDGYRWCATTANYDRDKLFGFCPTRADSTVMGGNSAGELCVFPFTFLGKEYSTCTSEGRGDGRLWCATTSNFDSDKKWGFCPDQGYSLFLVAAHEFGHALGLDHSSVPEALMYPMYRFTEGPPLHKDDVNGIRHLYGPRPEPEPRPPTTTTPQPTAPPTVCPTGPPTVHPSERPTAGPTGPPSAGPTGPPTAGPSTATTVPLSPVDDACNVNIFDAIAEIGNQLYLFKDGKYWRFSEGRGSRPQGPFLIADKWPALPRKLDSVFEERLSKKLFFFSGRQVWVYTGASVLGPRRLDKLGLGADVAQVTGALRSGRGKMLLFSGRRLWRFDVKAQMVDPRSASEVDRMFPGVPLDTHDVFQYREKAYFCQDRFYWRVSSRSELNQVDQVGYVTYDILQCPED
Experimental: as §3, §1
MMP9 was activated by incubation with 1 mM p-amino phenyl mercuric acetate (prepared from a stock at 100 mM in DMSO) for 24h at 37° C. in activation buffer: 50 mM TRIS HCl (pH 7.5), 10 mM CaCl2, 150 mM NaCl, 0.05% Brij35. The final enzyme concentration used for fluorescence assays was 2.5 nM.
To analyze the catalytic efficiency of candidate tandem linker designs, a tailored library approach using MSP-MS was applied. […] For quantitative comparisons, kinetic analysis was performed over a time course, and results are reported either as a catalytic efficiency kcat/KM for well-behaved first-order kinetics, or as observed rates as kobs for more complex kinetic behavior. […]

[5] = tested on: full set of five targeted enzymes; thrombin, Factor Xa, and hepsin; assay: 30-mer tandem linker design: comparison of cleavage efficiencies across enzymes; type: biochemical, human
Excerpt: To generate the most efficient tandem linker, the cleavage efficiencies for each of the targeted enzymes toward the 30-mer library peptides can be compared (FIG. 64).
Replacement of the ADAM17_2 motif with ADAM17_i may also enhance activity toward FAP-alpha and CTSL1, even if ADAM17 activity enhancement is minor, and hepsin susceptibility would be predicted to be reduced.

[6] = matched 30-mer peptides SEQ ID NO: 207 (CTSL1_1) and 219 (CTSL1_2)

ALFFSSPP (also: FRET fluorophore and quencher) [CTSL1_2]
Cleavage by CTSK, lower level than the CTSL1_1 substrate (Cathepsin K (CTSK)): 15 ×
Cleavage of 8-mer FRET substrate by CTSL1 (CTSL1 [1]; 8-mer FRET peptide, Mca/Dnp pair): not cleaved
Cleavage of 9-mer FRET substrate by CTSL1 (CTSL1 [1]; 9-mer sequence ALFFSSPPS (SEQ ID NO: 236)): comparable catalytic efficiency to the CTSL1_1 motif; also recorded: cleaved as a 9-mer FRET peptide
Relative efficiency of 30-mer peptide cleavage by CTSL1 (CTSL1 [2]): rapidly cleaved
+1 site product formation by CTSL1 (CTSL1 [2]; [6]): more rapidly formed
−1 site product formation by CTSL1 (CTSL1 [2]; [6]): did not
Relative efficiency of cleavage by hepsin (Hepsin): cleaved at a much slower rate than CTSL1_1

Bay 50-4798: IL-2 variant IL2/N88R, clinically tested as a low-toxicity version of IL-2
Levels of CD4+CD25+ T cells in clinical trials ([3]; cancer patients and HIV patients): increased the levels of CD4+CD25+ T cells
Safety and tolerability in clinical trials ([3]; human, in vivo): considerably safer and more tolerable than aldesleukin
Selectivity of stimulated proliferation [4]: selectively stimulate the proliferation of activated T cells relative to NK cells

KGGALFKSSFPGGPAGIGPLAQKLKSSGGS [Alu30-5]
Relative efficiency of 30-mer peptide cleavage by Factor Xa (Factor Xa): significant cleavage

RGSGGGPAGLYAQGSGGGPAGLYAQGGSGK [Alu30-2]
Relative efficiency of 30-mer peptide degradation by FAPα (FAPα): efficiently cleaved
Relative efficiency of 30-mer peptide cleavage by thrombin (Thrombin): less susceptible to thrombin
Relative efficiency of 30-mer substrate degradation/cleavage by MMP9 (MMP9): more efficient than the Alu30-1 peptide

SGGFPRSGGSFNPRTFGSKRKRRGSRGGGG [Alu30-19, reference compound]
Time to complete degradation by Factor Xa (Factor Xa): < 5 min
Time to cleavage at all three motifs by hepsin (Hepsin): ≤ 15 min
Apparent catalytic efficiency, hepsin (Hepsin; order of magnitude): ~10^5 M^−1s^−1

SGPLAQKLKSSGPAGLYAQALFKSSFPGSK [Alu30-16]
Activity toward the full set of five targeted enzymes [5]: generally high activity
Susceptibility to thrombin, Factor Xa, and hepsin [5]: lowest susceptibility
